Results: PMC6340165, “A GntR Family Transcription Factor in Streptococcus mutans Regulates Biofilm Formation and Expression of Multiple Sugar Transporter Genes”

Columns and labels:
[1] = target: T1, StsR (GntR family regulator) (Streptococcus mutans UA159) (UniProt Q8DTX4); assay: EMSA; settings: 50 mM Tris/HCl, 10 mM NaCl, 0.5 M Mg acetate (so in the source), 0.1 mM EDTA, 5% glycerol, 30 min, 10 uL; 4% native PAGE in 0.5x TBS; pH and binding temperature not …
T1 sequence: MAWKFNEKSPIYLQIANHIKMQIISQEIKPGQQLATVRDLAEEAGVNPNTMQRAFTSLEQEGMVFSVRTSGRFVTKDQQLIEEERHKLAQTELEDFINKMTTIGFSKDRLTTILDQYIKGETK

[2] = target: T1, StsR (GntR family regulator) (Streptococcus mutans UA159); assay: DNase I footprinting; settings: 50 mM Tris/HCl, 10 mM NaCl, 0.5 M Mg acetate (so in the source), 0.1 mM EDTA, 5% glycerol, 30 min, 10 uL; 4% native PAGE in 0.5x TBS; pH and binding temperature not …
[3] = target: StsR (GntR family regulator) (Streptococcus mutans UA159, UniProt Q8DTX4 1-123); assay: EMSA; 10-40 pmol StsR; 50 mM Tris/HCl, 10 mM NaCl, 0.5 M Mg acetate (so in the source), 0.1 mM EDTA, 5% glycerol, 30 min, 10 uL; 4% native PAGE in 0.5x TBS; pH and binding temperature not stated (DNase I digestion at 28 C); settings: protein: recombinant; tags: His6 (pET28a); chain copies: 2; label: FITC; annealed with reverse complement

AAGTGTCTCCTTCTACTTTTTAATAAAATAGTATTGTTTACTCAAATAATCACCTTGCGGCATATCAATGGTCAATCCCGCATACATTAACTCCGCA (double strand) [multiple sugar-binding ABC transporter promoter]
binding [1]: binds

CAAATTTTGGCAAAACTTTTGTGCCAAAATTTGAGTTTTATTAGAAAATGAAAAATGTTACAGTAGTTTTAGAATAAAAAGGAGGGGATTTCTGATGGAACGAAAATCTTCATTGAAGGTTCGGGTACA (double strand) [mannitol-specific PTS promoter]
binding [1]: binds

CAGGGATATGAAAATGACAAATGACACTGCAAAAGCGTTTTCAAAAAATGTAAAATAAAAATGAAATAAAAAAGAAAGTAGGGTGTATTC (double strand) [mannose-specific PTS promoter]
binding [1]: binds

CTTATAAAGTAATTTAATATCTTGATGAAATTTTAAAAAAACTTGACATTTTTCGCAAACGATTGCATAATATTATTGTAACAAAAATTACAAAGAAATTTCAGGAGGAAATCGCT (double strand) [maltose ABC transporter promoter]
binding [1]: binds

CTTCTGTCTCCTTAAGATCTACTTACTTTTATTATACTACAAATCCTTAAAATCCTCTTACTCTTTCATTTAATTCTACTAAATCTCATCAGTCTAAATTTACCACTTGACAATATTTTACTATAATTGTATTATATATATAACACAATTATACACTGCACTTTAGAAAGGAGAAAAAATGGCT (double strand) [stsR p2 FITC]
binding [2]: binds

CTTCTGTCTCCTTAAGATCTACTTACTTTTATTATACTACAAATCCTTAAAATCCTCTTACTCTTTCATTTAATTCTACTAAATCTCATCAGTCTAAATTTACCACTTGACAATATTTTACTATAATTGTATTATATATATAACACAATTATACACTGCACTTTAGAAAGGAGAAAAAATGGCT (double strand) [stsR p2]
binding [1]: binds

B1: stsR p3 (dsDNA)
DNA 1: CCACTTGACAATATTTTACTATAATTGTATTATATATATAACAC
DNA 2: GTGTTATATATATAATACAATTATAGTAAAATATTGTCAAGTGG
binding result [3]: binds

B2: stsR p3mut (dsDNA)
DNA 1: CCACTTGACAATATTTTACTCCACCTGTCCTCCATATATAACAC
DNA 2: GTGTTATATATGGAGGACAGGTGGAGTAAAATATTGTCAAGTGG
binding result [3]: no binding
